Laboratory results taken from patent US20240270846A1 (published 2024).

Molecular target: T1, CD3 epsilon homodimer protein (UniProt P07766 23-126)
T1 construct: Construct of the homodimer protein is not described; also called CD3 (CD3 epsilon)
Assay: SPR (Biacore T200), CD3 epsilon homodimer on CM4 chip, one-arm antibody as analyte; ratio to unaltered CE115HA000;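 note: surface plasmon resonance run at 25 °C with HBS-EP+ as running buffer, CD3 epsilon homodimer attached by amine coupling, antibody passed over as analyte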

T1 sequence (P07766 23-126): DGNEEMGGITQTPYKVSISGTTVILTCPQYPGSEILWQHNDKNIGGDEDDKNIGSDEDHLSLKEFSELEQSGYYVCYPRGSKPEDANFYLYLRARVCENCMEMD

| Binder | KD ratio (KD value of CE115HA000/KD value of the altered form) |
| --- | --- |
| CE115HA000 H96G one-arm antibody (antibody, human IgG1, kappa, L234A L235A, N297A, name in Kabat numbering, one-arm antibody) heavy: QVQLVESGGGVVQPGRSLRLSCAASGFTFSNAWMHWVRQAPGKGLEWVAQIKAKSNNYATYYAESVKGRFTISRDDSKNSLYLQMNSLKTEDTAVYYCRYVGYGAYYGVDAWGQGTTVTVSSASTKGPSVFPLAPSSKSTSGGTAALGCLVKDYFPEPVTVSWNSGALTSGVHTFPAVLQSSGLYSLSSVVTVPSSSLGTQTYICNVNHKPSNTKVDKKVEPKSCDKTHTCPPCPAPEAAGGPSVFLFPPKPKDTLMISRTPEVTCVVVDVSHEDPEVKFNWYVDGVEVHNAKTKPREEQYASTYRVVSVLTVLHQDWLNGKEYKCKVSNKALPAPIEKTISKAKGQPREPQVYTLPPSRCELTKNQVSLSCAVKGFYPSDIAVEWESNGQPENNYKTTPPVLDSDGSFFLVSKLTVDKSRWQQGNVFSCSVMHEALHNHYTQKSLSLSPDYKDDDDK EPKSSDKTHTCPPCPAPELLGGPSVFLFPPKPKDTLMISRTPEVTCVVVDVSHEDPEVKFNWYVDGVEVHNAKTKPREEQYNSTYRVVSVLTVLHQDWLNGKEYKCKVSNKALPAPIEKTISKAKGQPREPQVCTLPPSRDELTKNQVSLWCLVKGFYPSDIAVEWESNGQPENNYKTTPPVLDSDGSFFLYSKLTVDKSRWQQGNVFSCSVMHEALHNRYTQKSLSLSP light: DIVMTQSPLSLPVTPGEPASISCRSSQSLVHSNRNTYLHWYQQKPGQAPRLLIYKVSNRFSGVPDRFSGSGSGTDFTLKISRVEAEDVGVYYCGQGTQVPYTFGQGTKLEIKRTVAAPSVFIFPPSDEQLKSGTASVVCLLNNFYPREAKVQWKVDNALQSGNSQESVTEQDSKDSTYSLSSTLTLSKADYEKHKVYACEVTHQGLSSPVTKSFNRGEC | 0.8 |
| CE115HA000 H96K one-arm antibody (antibody, human IgG1, kappa, L234A L235A, N297A, name in Kabat numbering, one-arm antibody) heavy: QVQLVESGGGVVQPGRSLRLSCAASGFTFSNAWMHWVRQAPGKGLEWVAQIKAKSNNYATYYAESVKGRFTISRDDSKNSLYLQMNSLKTEDTAVYYCRYVKYGAYYGVDAWGQGTTVTVSSASTKGPSVFPLAPSSKSTSGGTAALGCLVKDYFPEPVTVSWNSGALTSGVHTFPAVLQSSGLYSLSSVVTVPSSSLGTQTYICNVNHKPSNTKVDKKVEPKSCDKTHTCPPCPAPEAAGGPSVFLFPPKPKDTLMISRTPEVTCVVVDVSHEDPEVKFNWYVDGVEVHNAKTKPREEQYASTYRVVSVLTVLHQDWLNGKEYKCKVSNKALPAPIEKTISKAKGQPREPQVYTLPPSRCELTKNQVSLSCAVKGFYPSDIAVEWESNGQPENNYKTTPPVLDSDGSFFLVSKLTVDKSRWQQGNVFSCSVMHEALHNHYTQKSLSLSPDYKDDDDK EPKSSDKTHTCPPCPAPELLGGPSVFLFPPKPKDTLMISRTPEVTCVVVDVSHEDPEVKFNWYVDGVEVHNAKTKPREEQYNSTYRVVSVLTVLHQDWLNGKEYKCKVSNKALPAPIEKTISKAKGQPREPQVCTLPPSRDELTKNQVSLWCLVKGFYPSDIAVEWESNGQPENNYKTTPPVLDSDGSFFLYSKLTVDKSRWQQGNVFSCSVMHEALHNRYTQKSLSLSP light: DIVMTQSPLSLPVTPGEPASISCRSSQSLVHSNRNTYLHWYQQKPGQAPRLLIYKVSNRFSGVPDRFSGSGSGTDFTLKISRVEAEDVGVYYCGQGTQVPYTFGQGTKLEIKRTVAAPSVFIFPPSDEQLKSGTASVVCLLNNFYPREAKVQWKVDNALQSGNSQESVTEQDSKDSTYSLSSTLTLSKADYEKHKVYACEVTHQGLSSPVTKSFNRGEC | 1.56 |
| CE115HA000 G100bS one-arm antibody (antibody, human IgG1, kappa, L234A L235A, N297A, name in Kabat numbering, one-arm antibody) heavy: QVQLVESGGGVVQPGRSLRLSCAASGFTFSNAWMHWVRQAPGKGLEWVAQIKAKSNNYATYYAESVKGRFTISRDDSKNSLYLQMNSLKTEDTAVYYCRYVHYGAYYSVDAWGQGTTVTVSSASTKGPSVFPLAPSSKSTSGGTAALGCLVKDYFPEPVTVSWNSGALTSGVHTFPAVLQSSGLYSLSSVVTVPSSSLGTQTYICNVNHKPSNTKVDKKVEPKSCDKTHTCPPCPAPEAAGGPSVFLFPPKPKDTLMISRTPEVTCVVVDVSHEDPEVKFNWYVDGVEVHNAKTKPREEQYASTYRVVSVLTVLHQDWLNGKEYKCKVSNKALPAPIEKTISKAKGQPREPQVYTLPPSRCELTKNQVSLSCAVKGFYPSDIAVEWESNGQPENNYKTTPPVLDSDGSFFLVSKLTVDKSRWQQGNVFSCSVMHEALHNHYTQKSLSLSPDYKDDDDK EPKSSDKTHTCPPCPAPELLGGPSVFLFPPKPKDTLMISRTPEVTCVVVDVSHEDPEVKFNWYVDGVEVHNAKTKPREEQYNSTYRVVSVLTVLHQDWLNGKEYKCKVSNKALPAPIEKTISKAKGQPREPQVCTLPPSRDELTKNQVSLWCLVKGFYPSDIAVEWESNGQPENNYKTTPPVLDSDGSFFLYSKLTVDKSRWQQGNVFSCSVMHEALHNRYTQKSLSLSP light: DIVMTQSPLSLPVTPGEPASISCRSSQSLVHSNRNTYLHWYQQKPGQAPRLLIYKVSNRFSGVPDRFSGSGSGTDFTLKISRVEAEDVGVYYCGQGTQVPYTFGQGTKLEIKRTVAAPSVFIFPPSDEQLKSGTASVVCLLNNFYPREAKVQWKVDNALQSGNSQESVTEQDSKDSTYSLSSTLTLSKADYEKHKVYACEVTHQGLSSPVTKSFNRGEC | 1.25 |

Now from value to binder:

| KD ratio (KD value of CE115HA000/KD value of the altered form) | Binder |
| --- | --- |
| 4.37 | CE115HA000 G100bF one-arm antibody (antibody, human IgG1, kappa, L234A L235A, N297A, name in Kabat numbering, one-arm antibody) heavy: QVQLVESGGGVVQPGRSLRLSCAASGFTFSNAWMHWVRQAPGKGLEWVAQIKAKSNNYATYYAESVKGRFTISRDDSKNSLYLQMNSLKTEDTAVYYCRYVHYGAYYFVDAWGQGTTVTVSSASTKGPSVFPLAPSSKSTSGGTAALGCLVKDYFPEPVTVSWNSGALTSGVHTFPAVLQSSGLYSLSSVVTVPSSSLGTQTYICNVNHKPSNTKVDKKVEPKSCDKTHTCPPCPAPEAAGGPSVFLFPPKPKDTLMISRTPEVTCVVVDVSHEDPEVKFNWYVDGVEVHNAKTKPREEQYASTYRVVSVLTVLHQDWLNGKEYKCKVSNKALPAPIEKTISKAKGQPREPQVYTLPPSRCELTKNQVSLSCAVKGFYPSDIAVEWESNGQPENNYKTTPPVLDSDGSFFLVSKLTVDKSRWQQGNVFSCSVMHEALHNHYTQKSLSLSPDYKDDDDK EPKSSDKTHTCPPCPAPELLGGPSVFLFPPKPKDTLMISRTPEVTCVVVDVSHEDPEVKFNWYVDGVEVHNAKTKPREEQYNSTYRVVSVLTVLHQDWLNGKEYKCKVSNKALPAPIEKTISKAKGQPREPQVCTLPPSRDELTKNQVSLWCLVKGFYPSDIAVEWESNGQPENNYKTTPPVLDSDGSFFLYSKLTVDKSRWQQGNVFSCSVMHEALHNRYTQKSLSLSP light: DIVMTQSPLSLPVTPGEPASISCRSSQSLVHSNRNTYLHWYQQKPGQAPRLLIYKVSNRFSGVPDRFSGSGSGTDFTLKISRVEAEDVGVYYCGQGTQVPYTFGQGTKLEIKRTVAAPSVFIFPPSDEQLKSGTASVVCLLNNFYPREAKVQWKVDNALQSGNSQESVTEQDSKDSTYSLSSTLTLSKADYEKHKVYACEVTHQGLSSPVTKSFNRGEC |
| 5.84 | CE115HA000 G100bL one-arm antibody (antibody, human IgG1, kappa, L234A L235A, N297A, name in Kabat numbering, one-arm antibody) heavy: QVQLVESGGGVVQPGRSLRLSCAASGFTFSNAWMHWVRQAPGKGLEWVAQIKAKSNNYATYYAESVKGRFTISRDDSKNSLYLQMNSLKTEDTAVYYCRYVHYGAYYLVDAWGQGTTVTVSSASTKGPSVFPLAPSSKSTSGGTAALGCLVKDYFPEPVTVSWNSGALTSGVHTFPAVLQSSGLYSLSSVVTVPSSSLGTQTYICNVNHKPSNTKVDKKVEPKSCDKTHTCPPCPAPEAAGGPSVFLFPPKPKDTLMISRTPEVTCVVVDVSHEDPEVKFNWYVDGVEVHNAKTKPREEQYASTYRVVSVLTVLHQDWLNGKEYKCKVSNKALPAPIEKTISKAKGQPREPQVYTLPPSRCELTKNQVSLSCAVKGFYPSDIAVEWESNGQPENNYKTTPPVLDSDGSFFLVSKLTVDKSRWQQGNVFSCSVMHEALHNHYTQKSLSLSPDYKDDDDK EPKSSDKTHTCPPCPAPELLGGPSVFLFPPKPKDTLMISRTPEVTCVVVDVSHEDPEVKFNWYVDGVEVHNAKTKPREEQYNSTYRVVSVLTVLHQDWLNGKEYKCKVSNKALPAPIEKTISKAKGQPREPQVCTLPPSRDELTKNQVSLWCLVKGFYPSDIAVEWESNGQPENNYKTTPPVLDSDGSFFLYSKLTVDKSRWQQGNVFSCSVMHEALHNRYTQKSLSLSP light: DIVMTQSPLSLPVTPGEPASISCRSSQSLVHSNRNTYLHWYQQKPGQAPRLLIYKVSNRFSGVPDRFSGSGSGTDFTLKISRVEAEDVGVYYCGQGTQVPYTFGQGTKLEIKRTVAAPSVFIFPPSDEQLKSGTASVVCLLNNFYPREAKVQWKVDNALQSGNSQESVTEQDSKDSTYSLSSTLTLSKADYEKHKVYACEVTHQGLSSPVTKSFNRGEC |
| 51.4 | CE115HA000 G100bY one-arm antibody (antibody, human IgG1, kappa, L234A L235A, N297A, name in Kabat numbering, one-arm antibody) heavy: QVQLVESGGGVVQPGRSLRLSCAASGFTFSNAWMHWVRQAPGKGLEWVAQIKAKSNNYATYYAESVKGRFTISRDDSKNSLYLQMNSLKTEDTAVYYCRYVHYGAYYYVDAWGQGTTVTVSSASTKGPSVFPLAPSSKSTSGGTAALGCLVKDYFPEPVTVSWNSGALTSGVHTFPAVLQSSGLYSLSSVVTVPSSSLGTQTYICNVNHKPSNTKVDKKVEPKSCDKTHTCPPCPAPEAAGGPSVFLFPPKPKDTLMISRTPEVTCVVVDVSHEDPEVKFNWYVDGVEVHNAKTKPREEQYASTYRVVSVLTVLHQDWLNGKEYKCKVSNKALPAPIEKTISKAKGQPREPQVYTLPPSRCELTKNQVSLSCAVKGFYPSDIAVEWESNGQPENNYKTTPPVLDSDGSFFLVSKLTVDKSRWQQGNVFSCSVMHEALHNHYTQKSLSLSPDYKDDDDK EPKSSDKTHTCPPCPAPELLGGPSVFLFPPKPKDTLMISRTPEVTCVVVDVSHEDPEVKFNWYVDGVEVHNAKTKPREEQYNSTYRVVSVLTVLHQDWLNGKEYKCKVSNKALPAPIEKTISKAKGQPREPQVCTLPPSRDELTKNQVSLWCLVKGFYPSDIAVEWESNGQPENNYKTTPPVLDSDGSFFLYSKLTVDKSRWQQGNVFSCSVMHEALHNRYTQKSLSLSP light: DIVMTQSPLSLPVTPGEPASISCRSSQSLVHSNRNTYLHWYQQKPGQAPRLLIYKVSNRFSGVPDRFSGSGSGTDFTLKISRVEAEDVGVYYCGQGTQVPYTFGQGTKLEIKRTVAAPSVFIFPPSDEQLKSGTASVVCLLNNFYPREAKVQWKVDNALQSGNSQESVTEQDSKDSTYSLSSTLTLSKADYEKHKVYACEVTHQGLSSPVTKSFNRGEC |
